Experiments:
[1] = target: human legumain, activated asparaginyl-specific endopeptidase (AEP) (human) (UniProt Q99538); experiment: enzyme inhibition kinetics (Ki from initial velocities, Morrison equation); hCE-K75A at 1.5 nM to 1.6 µM mixed with 50 µM AAN-AMC in 20 mM citric acid pH 5.5, 50 mM NaCl, 0.05% Tween-20; reaction started with 2 nM legumain; 10 min at 37 °C
[2] = target: human legumain, activated asparaginyl-specific endopeptidase (AEP) (human) (UniProt Q99538); experiment: SEC; legumain incubated with hCE-K75A at a 1:4 molar ratio in 50 mM citric acid pH 4.0, 100 mM NaCl for 1 h at 37 °C, till complete RCL hydrolysis; Superdex 75 or S200 10/300 GL in 20 mM citric acid pH 4.0, 50 mM NaCl; peak fractions analysed by SDS-PAGE

Chain of UniProt Q99538 (Q99538 18-323): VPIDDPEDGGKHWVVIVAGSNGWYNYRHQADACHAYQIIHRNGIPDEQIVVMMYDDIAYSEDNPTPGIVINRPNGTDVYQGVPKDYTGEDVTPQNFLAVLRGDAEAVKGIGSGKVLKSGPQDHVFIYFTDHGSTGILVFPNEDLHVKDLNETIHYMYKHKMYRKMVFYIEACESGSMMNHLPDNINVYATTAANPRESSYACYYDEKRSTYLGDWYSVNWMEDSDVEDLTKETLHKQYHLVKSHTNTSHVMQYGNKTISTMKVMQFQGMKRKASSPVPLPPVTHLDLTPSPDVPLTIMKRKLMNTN

| Substance | Ki [1] [nM] | molar ratio of enzyme:inhibitor in the complex peak (enzyme:inhibitor) [2] |
| --- | --- | --- |
| human cystatin M/E-K75A mutant, intact (natural protein) | 19.8 | – |
| human cystatin M/E-K75A mutant, cleaved by legumain after P1-Asn39 on the reactive center loop (complex) | – | 1 |
